Results on 4 molecules are retold here after US20240075137A1 (COMPUGEN, published 2024).

By Kd is commonly meant a measure of binding affinity in units of concentration. Usually IC50 stands for the concentration at which inhibition is half-maximal. Low readings indicate greater potency in that assay, high ones weaker potency in that assay. As a reminder, the EC50 is the concentration needed to bring the measured effect to its halfway point. The low end stands for higher potency in that assay, the high end for lower potency in that assay.

Experiment [1] concerns the target T1, human PVRIG on cells (human, UniProt Q6DKI7 1-326).
T1 construct: whole, on cells; over-expressed on HEK cells or endogenous on Jurkat and CD8 T cells; also called hPVRIG; HEK hPVRIG cells
T1 sequence (looked up): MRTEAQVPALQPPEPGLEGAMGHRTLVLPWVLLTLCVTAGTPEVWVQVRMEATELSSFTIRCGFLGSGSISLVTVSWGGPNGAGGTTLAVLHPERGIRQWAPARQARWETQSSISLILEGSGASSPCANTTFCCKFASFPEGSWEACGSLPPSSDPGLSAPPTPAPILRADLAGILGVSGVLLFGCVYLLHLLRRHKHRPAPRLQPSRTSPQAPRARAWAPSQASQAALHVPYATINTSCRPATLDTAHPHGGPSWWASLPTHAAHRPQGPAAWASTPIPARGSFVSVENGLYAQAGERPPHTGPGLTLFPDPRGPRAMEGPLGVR
Put plainly: flow cytometry titration, Jurkat cells. (In general: In flow cytometry, cells or beads pass a laser one at a time.)

For experiment [2], the target named is T1, human PVRIG on cells. Put plainly: flow cytometry titration, HEK hPVRIG cells.
Experiment [3] has as its target T2, cynomolgus PVRIG on cells (cynomolgus, UniProt A0A2K5WVV8 41-322).
T2 construct: whole, on cells; also called cPVRIG; expi cPVRIG cells
T2 sequence: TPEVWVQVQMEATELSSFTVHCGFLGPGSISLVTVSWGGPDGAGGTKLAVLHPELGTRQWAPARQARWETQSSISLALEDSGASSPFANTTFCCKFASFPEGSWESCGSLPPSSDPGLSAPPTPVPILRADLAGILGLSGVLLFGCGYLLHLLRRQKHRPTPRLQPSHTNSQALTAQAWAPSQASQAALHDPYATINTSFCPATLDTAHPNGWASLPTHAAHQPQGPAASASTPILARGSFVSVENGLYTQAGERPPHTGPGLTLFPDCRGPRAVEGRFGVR
Put plainly: flow cytometry titration, expi cPVRIG cells.

For experiment [4], the target named is T1, human PVRIG on cells. Put plainly: FACS competition: PVRL2 mFc binding to HEK hPVRIG cells.
The target in experiment [5] is T1, human PVRIG on cells. Put plainly: FACS on Jurkat cells pre-incubated with Isotype (unconjugated).
In experiment [6] the target is T1, human PVRIG on cells. Put plainly: FACS on Jurkat cells pre-incubated with CHA.7.518.1 (unconjugated).
Experiment [7] concerns the target T1, human PVRIG on cells. Put plainly: FACS on Jurkat cells pre-incubated with CHA.7.538.1.2 (unconjugated).
The target of a further experiment is T3, PVRIG Fc (UniProt Q6DKI7 41-171, limits assumed, biotinylated (Example 5)).
T3 construct: also called biotinylated PVRIG Fc protein; PVRIG-Fc-fusion protein
T3 sequence (looked up): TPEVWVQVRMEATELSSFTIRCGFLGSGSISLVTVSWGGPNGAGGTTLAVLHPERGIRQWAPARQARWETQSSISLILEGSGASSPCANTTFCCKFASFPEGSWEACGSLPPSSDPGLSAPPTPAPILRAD
Put plainly: FACS competition: biotinylated PVRIG Fc (33 nM) binding to HEK cells with endogenous PVRL2.

In a further experiment the target is T4, Cyno TIGIT-His.
T4 construct: also called cyno TIGIT monomer (prepared in-house); C-terminal HIS-tagged cyno TIGIT ECD recombinant protein
T4 sequence (ECD with C-terminal His tag, as listed by the source): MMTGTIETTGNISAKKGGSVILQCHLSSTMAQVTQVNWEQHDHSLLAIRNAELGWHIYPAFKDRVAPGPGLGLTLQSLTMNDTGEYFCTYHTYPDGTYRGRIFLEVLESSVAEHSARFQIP
Put plainly: SPR (ProteOn), Cyno TIGIT-His.

Experiment [8] deals with T5, human TIGIT ECD with C-terminal polyhistidine tag (human, UniProt Q495A1 22-141).
T5 construct: in-house or Sino Biological; also called hTIGIT-HIS; human TIGIT-HIS
T5 sequence: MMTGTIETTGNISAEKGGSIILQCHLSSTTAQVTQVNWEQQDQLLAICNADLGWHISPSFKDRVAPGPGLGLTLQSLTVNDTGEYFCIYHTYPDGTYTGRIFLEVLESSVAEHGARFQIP
Put plainly: SPR (ProteOn), Human TIGIT-His.

Experiment [9] addresses T5, human TIGIT ECD with C-terminal …. Put plainly: SPR (ProteOn), mAb captured, human TIGIT injected; BM29 as hIgG4.
For the next experiment, the target named is T6, Mouse TIGIT-His (mouse, UniProt P86176).
T6 construct: also called mouse TIGIT monomer (prepared in-house)
T6 sequence (soluble monomer with His tag, looked up): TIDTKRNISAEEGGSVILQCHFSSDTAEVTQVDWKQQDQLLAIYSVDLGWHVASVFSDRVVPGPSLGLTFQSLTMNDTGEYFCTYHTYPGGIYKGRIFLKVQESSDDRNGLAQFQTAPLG
Put plainly: SPR (ProteOn), mAb captured, mouse TIGIT monomer injected; BM29 as hIgG4.

For experiment [10], the target named is T7, human TIGIT on cells (human, UniProt Q495A1 22-141).
T7 construct: also called Expi293 human TIGIT over-expressing cells
T7 sequence: T5 sequence
Put plainly: FACS titration of AF647-labelled mAb on human effector memory CD8+ T cells, Donor 321.

In experiment [11] the target is T7, human TIGIT on cells. Put plainly: FACS titration of AF647-labelled mAb on human effector memory CD8+ T cells, Donor 322.
In experiment [12] the target is T7, human TIGIT on cells. Put plainly: FACS titration of AF647-labelled mAb on human effector memory CD8+ T cells, Donor 334.
Experiment [13] concerns the target T7, human TIGIT on cells. Put plainly: FACS titration on human TIGIT OE Expi293 cells, binding site concentration; ± 95% CI; 'Fit: Excellent'.
The next experiment addresses T8, cyno TIGIT on cells (cynomolgus macaque).
T8 construct: whole, on cells; also called Expi293 cyno TIGIT over-expressing cells
Put plainly: FACS titration on cyno TIGIT OE Expi293 cells, binding site concentration; ± 95% CI; 'Fit: Good/Excellent'.

Experiment [14] deals with T7, human TIGIT on cells. Put plainly: FACS blocking of human PVR-m2aFc binding to human TIGIT OE Expi293 cells; binding site concentration; n=1.
Experiment [15] addresses T7, human TIGIT on cells. Put plainly: FACS blocking of human PVR-m2aFc binding to human TIGIT OE Expi293 cells; binding site concentration; n=2.
In experiment [16] the target is T1, human PVRIG on cells. Put plainly: flow cytometry, Jurkat cells.
Experiment [17] has as its target T1, human PVRIG on cells. Put plainly: flow cytometry, HEK hPVRIG cells.
The target in experiment [18] is T1, human PVRIG on cells. Put plainly: FACS, HEK hPVRIG cells (HEK OE).
In experiment [19] the target is T1, human PVRIG on cells. Put plainly: FACS on Jurkat cells; column head 'Kd', unit nM from legend paragraph 75.
For experiment [20], the target named is T1, human PVRIG on cells. Put plainly: FACS on HEK hPVRIG cells; column head 'Kd', unit nM from legend paragraph 75.
The target in experiment [21] is T9, PVRIG (FACS-based competition assay of FIGS. 7 and 15) (Homo sapiens, UniProt Q6DKI7).
T9 construct: made because the format of the assay is only described in U.S. Ser. No. 15/048,967; also called human PVRIG
T9 sequence (receptor, looked up): T3 sequence (looked up)
Put plainly: FACS-based competition assay of PVRIG blocking; format and competitor not given.

Experiment [22] deals with T9, PVRIG (FACS-based competition assay of …). The experiment is described as above. This is another data set of the same source.
A further experiment addresses T10, mPVRL2 HIS (mouse, UniProt P32507 32-351, limits assumed).
T10 construct: also called mPVRL2 protein; Soluble PVRL2 HIS protein
T10 sequence (looked up): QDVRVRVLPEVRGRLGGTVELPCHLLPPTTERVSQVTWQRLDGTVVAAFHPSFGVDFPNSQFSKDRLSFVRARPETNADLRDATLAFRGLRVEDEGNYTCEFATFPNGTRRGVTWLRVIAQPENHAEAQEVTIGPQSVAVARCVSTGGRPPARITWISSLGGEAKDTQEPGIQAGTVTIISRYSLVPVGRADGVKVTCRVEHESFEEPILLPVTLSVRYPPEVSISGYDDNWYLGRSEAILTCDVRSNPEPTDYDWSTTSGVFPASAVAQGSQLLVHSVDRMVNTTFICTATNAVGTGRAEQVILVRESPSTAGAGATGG
Put plainly: ELISA: soluble receptor Fc titrated on immobilized mPVRL2 HIS.

Read-outs that look alike come from different tables or passages of the source.

B1: CHA.7.538.1.2.H4(S241P) (antibody, human IgG4 S228P, kappa, V domains shown)
VH: QVQLVQSGAEVKKPGASVKVSCKASGYAFTNYLIEWVRQAPGQGLEWIGVINPGSGGIYYAQKFQGRVTMTADTSTSTVYMELSSLRSEDTAVYYCARSETHDTWFAYWGQGTLVTVSS
VL: DIQMTQSPSSLSASVGDRVTITCKASQSVRIAVAWFQQKPGKAPKALIYLASTRHTGVPSRFSGSGSGTDFTLTISSVQPEDFATYYCLQHWNYPYTFGQGTKLEIKR
notes: humanized, human IgG4 with S241P
On to B1, for which the dissociation constant (Kd) with human PVRIG on cells [1] was determined as 0.59 nM; with human PVRIG on cells [2], 0.86 nM; in experiment [3], 0.58 nM. The IC50 with human PVRIG on cells [4] stood at 2.53 nM; with PVRIG Fc, 16.1 nM. Also, the entries for the “% binding relative to maximum signal” value with human PVRIG on cells [5], with human PVRIG on cells [6] and with human PVRIG on cells [7] were 100%, 32% and 7%, respectively.

B2: BM29 hIgG4 (antibody, V domains shown)
VH: QVHLQESGPGLVKPSETLSLTCTVSGGSVSSGIYYWSWIRQPPGKGLEWIGYIYYSGSTNYNPSLKSRVTISVDTSKNQFSLKLSSVTAADTAVYYCARDYYVSGNYYNVDYYFFGVDVWGQGTTVTVSS
VL: EIVLTQSPATLSLSPGERATLSCRASQSVSSYLAWYQQKPGQAPRLLIYDASNRATGIPARFSGSGSGTDFTLTISSLEPEDFAVYYCQQRSNWPPLFTFGPGTKVDIKR
notes: benchmark anti-human TIGIT antibody, human IgG4 with S241P; also called BM29-H4; US2016/0176963A1 Clone 22G2 as hIgG4
For the molecule B2, the Kd with Cyno TIGIT-His amounted to 1.54 nM; in [8] it was 0.011 nM; in [9], 0.015 nM; with human TIGIT on cells [10], 0.88 nM; in the experiment with human TIGIT on cells [11], 0.91 nM; with human TIGIT on cells [12] it was 0.59 nM. Moreover, the results for the dissociation constant Kd with human TIGIT on cells [13] and with cyno TIGIT on cells were 1.53 nM and 1.67 nM, respectively. Moreover, in the experiment with Mouse TIGIT-His, the binding result is “no binding (tested: 92.9 nM mouse TIGIT)”. The values for the IC50 with human TIGIT on cells [14] and in the experiment with human TIGIT on cells [15] were 1 nM and 0.5 nM, respectively.

B3: CHA.7.518 (antibody, V domains shown)
VH: EVQLQQSGPELVKPGASVKISCKASGYTFTDYNINWVKQSHGKSLEWIGYIYPYIGGSGYNQKFKSKATLSADNPSSTAYMELRSLTSEDSAVYYCAREDKTARNAMDYWGQGTPVTVSS
VL: DIQMTQSPASLSVSVGETVTIICRVSENIYSNLAWYQQKQGKSPQLLVYEATNLAEGVPSRFSGSGSGTQYSLKINSLQSEDFGSYYCQHFWGTPYTFGGGTKLEIK
In the case of B3, the “fold higher affinity than CPA.7.021” value is around 13 fold in the experiment with human PVRIG on cells [16] and around 8 fold with human PVRIG on cells [17]. In addition, the EC50 with human PVRIG on cells [18] was determined as 0.36 nM. Also, the equilibrium dissociation constant (Kd) with human PVRIG on cells [19] stood at 0.24 nM; with human PVRIG on cells [20] it was 0.36 nM. Also, the IC50 in experiment [21] and in [22] was 23.1 nM in each case.

B4: TIGIT Fc (Fc fusion, UniProt P86176 29-148, looked up)
fusion chain: T6 sequence (soluble monomer with His tag, looked up)
notes: receptor part of an Fc fusion; Soluble receptor Fc tested on immobilized mPVRL2 HIS
Consider B4, for which, in the experiment with mPVRL2 HIS, the binding result is given as “no binding (tested: about 200 nM)”.
